Literature values, collected in paper PMC5764468.

Biological target: calmodulin (Homo sapiens) (UniProt P0DP23)

Substance: CyaA AC domain AC (from UniProt P0DKX7)
- Kd: < 0.1 nM
